Experimental data taken from publication PMC6317822, “RSM1, an Arabidopsis MYB protein, interacts with HY5/HYH to modulate seed germination and seedling development in response to abscisic acid and salinity” (PLoS Genetics, 2018).
One block for each binder: values may come before it.

Legend:
His-RSM1 = molecular target: T1, His-RSM1 (Arabidopsis thaliana, UniProt Q9SIJ5 1-101); assay: EMSA; EMSA: 2 ug protein in 20 uL, 10 mM Tris-HCl pH 7.5, 50 mM KCl, 1 mM DTT, 50 ng/uL poly(dI-dC), 25 C, 20 min; 4-6% native PAGE, 0.5x TBE; conditions: protein: recombinant, tags: His (pET28a)
T1 sequence: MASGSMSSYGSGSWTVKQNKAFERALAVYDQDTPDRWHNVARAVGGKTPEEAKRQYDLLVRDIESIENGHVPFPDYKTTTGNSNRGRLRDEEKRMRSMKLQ

His-HY5 [1] = molecular target: T2, His-HY5 (Arabidopsis thaliana, UniProt O24646 1-168); assay: competition; unlabeled competitor vs N1; EMSA: 2 ug protein in 20 uL, 10 mM Tris-HCl pH 7.5, 50 mM KCl, 1 mM DTT, 50 ng/uL poly(dI-dC), 25 C, 20 min; 4-6% native PAGE, 0.5x TBE; conditions: protein: recombinant; tags: His; chain copies: 2; label: unlabeled
T2 sequence: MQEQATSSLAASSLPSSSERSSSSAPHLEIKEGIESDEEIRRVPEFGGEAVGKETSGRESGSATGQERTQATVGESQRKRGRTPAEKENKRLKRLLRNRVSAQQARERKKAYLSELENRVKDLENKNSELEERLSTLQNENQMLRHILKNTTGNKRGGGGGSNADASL

GST-HYH [2] = molecular target: T3, GST-HYH (Arabidopsis thaliana, UniProt Q8W191 1-149); assay: as above; conditions: protein: recombinant; tags: GST (pGEX-4T-1); chain copies: 2; label: unlabeled
T3 sequence: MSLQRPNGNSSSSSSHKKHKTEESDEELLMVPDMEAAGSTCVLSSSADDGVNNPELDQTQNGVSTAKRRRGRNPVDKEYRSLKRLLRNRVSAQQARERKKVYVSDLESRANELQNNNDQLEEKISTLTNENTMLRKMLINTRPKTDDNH

His-HY5 [3] = molecular target: T2, His-HY5; assay: EMSA; EMSA: 2 ug protein in 20 uL, 10 mM Tris-HCl pH 7.5, 50 mM KCl, 1 mM DTT, 50 ng/uL poly(dI-dC), 25 C, 20 min; 4-6% native PAGE, 0.5x TBE; conditions: protein: recombinant; tags: His; chain copies: 2; label: biotin 5'
GST-HYH [4] = molecular target: T3, GST-HYH; assay: as above; conditions: protein: recombinant; tags: GST (pGEX-4T-1); chain copies: 2; label: biotin 5'
GST-HY5 = molecular target: T4, GST-HY5 (Arabidopsis thaliana, UniProt O24646 1-168); assay: as above; conditions: protein: recombinant; tags: GST (pGEX-4T-1 in Methods); chain copies: 2; label: biotin 5' on both strands; blunt
T4 sequence: T2 sequence

[5] = molecular target: T5, GST-HY5 (ELONGATED HYPOCOTYL 5) (Arabidopsis, UniProt O24646 1-168); assay: pull-down; 2 ug GST or GST fusion protein mixed with 2 ug His-RSM1 in 500 uL GST binding buffer (50 mM Tris-HCl pH 7.5, 100 mM NaCl, 0.1% Nonidet P-40), Glutathione Sepharose 4B beads, 4 C, 2 h; four washes; immunoblot with anti-GST or anti-His; conditions: both partners purified
T5 construct: HY5 (ELONGATED HYPOCOTYL 5), bZIP transcription factor, Arabidopsis, At5g11260; the CDS cloned into the EcoRI and XhoI sites of pGEX-4T-1
T5 sequence (looked up): T2 sequence

B1: RSM1 promoter P2 (dsDNA)
DNA 1: GTGAGCTTTGTGCTCTGATTAGAGACCAGACTGTTCCATGAATTAAGTAC
DNA 2: GTACTTAATTCATGGAACAGTCTGGTCTCTAATCAGAGCACAAAGCTCAC
binding result (His-RSM1; label: biotin 5'): binds

B2: RSM1 promoter m1 competitor (dsDNA)
DNA 1: GCTGCAAGAATGACGTCATAACCACTAA
DNA 2: TTAGTGGTTATGACGTCATTCTTGCAGC
binding result (His-HY5 [1]): binds
binding result (GST-HYH [2]): binds

B3: RSM1 promoter C-box probe (WT) (dsDNA)
DNA 1: ATCTAGAGAATGACGTCATAACCACTAA
DNA 2: TTAGTGGTTATGACGTCATTCTCTAGAT
binding result (His-HY5 [3]): binds
binding result (GST-HYH [4]): binds

B4: ABI5 promoter probe (HY5 site) (dsDNA)
DNA 1: CCTTATGCAGTGAATAGTCCACGTGCACTCCCAATGGAAGTTCGGAATC
DNA 2: GATTCCGAACTTCCATTGGGAGTGCACGTGGACTATTCACTGCATAAGG
binding result (His-RSM1; label: biotin 5' on both strands, blunt): no binding
binding result (GST-HY5): binds

B5: RSM1 promoter m2 competitor (dsDNA)
DNA 1: ATCTAGAGAATAGTACTATAACCACTAA
DNA 2: TTAGTGGTTATAGTACTATTCTCTAGAT
binding result (His-HY5 [1]): no binding
binding result (GST-HYH [2]): no binding

B6: RSM1 promoter P1 (dsDNA)
DNA 1: GAGACTTGTCCCTAACTTTCAACCAAAGACTTGTAATTTTCCGCGAGCAC
DNA 2: GTGCTCGCGGAAAATTACAAGTCTTTGGTTGAAAGTTAGGGACAAGTCTC
binding result (His-RSM1; label: biotin 5'): binds

binding result [5]: binds
B7: His-RSM1 (RADIALIS-LIKE SANT/MYB 1) (natural protein, Arabidopsis, UniProt Q9SIJ5 1-101, looked up)
chain: T1 sequence
notes: the CDS of RSM1 cloned into the BamHI and SacI sites of pET28a; also called MEE3; MATERNAL EFFECT EMBRYO ARREST 3; source: E. coli BL21 (pET28a-RSM1, 1 mM IPTG), purified with Ni-NTA beads

B8: RSM1 promoter m3 competitor (dsDNA)
DNA 1: ATCTAGAGAATGACGTCATAACTGTCGG
DNA 2: CCGACAGTTATGACGTCATTCTCTAGAT
binding result (His-HY5 [1]): binds
binding result (GST-HYH [2]): binds
